Measured values: patent publication US20170088631A1 (Hoffmann-La Roche, published 2017)
Numbering of substitutions follows the chain as printed. Names and notes keep the numbering of the source. One block for each binder: values may come before it.

How the values were obtained:
[1] = target: T1, human Fibroblast Activation Protein (FAP), recombinant (human, UniProt Q12884 27-760); experiment: SPR (ProteOn XPR36), GLM chip, huFAP as ligand by amine coupling (500 RU), construct as analyte, 1:1 global fit
T1 construct: they are treated as one molecule; also called Hu FAP; huFAP
T1 sequence (Q12884 27-760 limits assumed): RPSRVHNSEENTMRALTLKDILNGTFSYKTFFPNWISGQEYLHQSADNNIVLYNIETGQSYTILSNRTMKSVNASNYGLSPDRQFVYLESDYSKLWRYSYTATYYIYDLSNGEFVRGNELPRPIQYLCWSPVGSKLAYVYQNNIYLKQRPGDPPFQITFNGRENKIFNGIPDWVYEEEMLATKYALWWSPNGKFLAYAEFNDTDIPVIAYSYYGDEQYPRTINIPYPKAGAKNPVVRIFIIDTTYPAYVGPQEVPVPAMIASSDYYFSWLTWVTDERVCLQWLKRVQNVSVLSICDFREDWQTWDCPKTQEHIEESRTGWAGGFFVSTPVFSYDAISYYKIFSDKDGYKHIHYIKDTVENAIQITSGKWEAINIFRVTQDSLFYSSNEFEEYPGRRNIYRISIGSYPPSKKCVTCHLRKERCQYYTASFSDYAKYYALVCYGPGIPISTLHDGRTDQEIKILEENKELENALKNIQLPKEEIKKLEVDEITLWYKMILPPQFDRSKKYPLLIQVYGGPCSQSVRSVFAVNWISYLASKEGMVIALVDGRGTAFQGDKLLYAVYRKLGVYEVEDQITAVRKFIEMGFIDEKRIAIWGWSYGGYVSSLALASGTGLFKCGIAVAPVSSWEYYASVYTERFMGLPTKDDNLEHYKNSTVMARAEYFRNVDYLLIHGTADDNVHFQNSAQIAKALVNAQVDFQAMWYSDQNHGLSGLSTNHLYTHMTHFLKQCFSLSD

[2] = target: T2, human A2 domain of Tenascin-C (TNC A2), recombinant (human, UniProt P24821 1167-1256, limits assumed, biotinylated via a C-terminal avi-tag (Example 5)); experiment: SPR (ProteOn XPR36), NLC chip, biotinylated TNC A2 as ligand (250 RU), construct as analyte, 1:1 global fit; human TNC A2 as ligand
T2 construct: domain: A2 domain of Tenascin-C; also called human TNC A2
T2 sequence (looked up): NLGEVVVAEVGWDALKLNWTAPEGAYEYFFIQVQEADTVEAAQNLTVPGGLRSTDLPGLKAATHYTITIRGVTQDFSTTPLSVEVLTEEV

[3] = target: T1, human Fibroblast Activation Protein …; experiment: SPR (Biacore), His-tagged human FAP captured by anti-His antibody, antibody as analyte, 25 C; apparent bivalent affinity (avidity), 1:1 fit
Procedure: The FAP binding activity of the IgG-IL-2 qm immunoconjugates based on 4G8 and 28H1 anti-FAP antibodies were determined by surface plasmon resonance (SPR) on a Biacore machine in comparison to the corresponding unmodified IgG antibodies. […] Temperature was 25° C. and HBS-EP was used as buffer. Analyte concentration was 50 nM down to 0.05 nM at a flow rate of 50 μl/min (association: 300 s, dissociation: 900 s, regeneration: 60 s with 10 mM glycine pH 2). Fitting was performed based on a 1:1 binding model, RI=0, Rmax=local (because of capture format).

Kd [1]: 0.026 nM | koff [1]: 1.75e-05 s⁻¹ | kon [1]: 668000 M⁻¹ s⁻¹
B1: FAP-targeted 4G8-based IgG-IL-10 immunoconjugate with monomeric IL-10 (IL-10M1) (other)
heavy 1: not shown
heavy 2: not shown
light: EVQLLESGGGLVQPGGSLRLSCAASGFTFSRYGMSWVRQAPGKGLEWVSAISGSGGSTYYADSVKGRFTISRDNSKNTLYLQMNSLRAEDTAVYYCAKAHNAFDYWGQGTLVTVSSASTKGPSVFPLAPSSKSTSGGTAALGCLVKDYFPEPVTVSWNSGALTSGVHTFPAVLQSSGLYSLSSVVTVPSSSLGTQTYICNVNHKPSNTKVDKKVEPKSCDSSSSGSSSSGSSSSGAPASSSTKKTQLQLEHLLLDLQMILNGINNYKNPKLTRMLTAKFAMPKKATELKHLQCLEEELKPLEEVLNGAQSKNFHLRPRDLISNINVIVLELKGSETTFMCEYADETATIVEFLNRWITFAQSIISTLTSGGGGSGGGGSGGGGEVQLLESGGGLVQPGGSLRLSCAASGFTFSRYGMSWVRQAPGKGLEWVSAISGSGGSTYYADSVKGRFTISRDNSKNTLYLQMNSLRAEDTAVYYCAKAHNAFDYWGQGTLVTVSSASTKGPSVFPLAPSSKSTSGGTAALGCLVKDYFPEPVTVSWNSGALTSGVHTFPAVLQSSGLYSLSSVVTVPSSSLGTQTYICNVNHKPSNTKVDKKVEPKSCD
notes: P329G LALA in the Fc; also called 4G8 IgG-IL-10M1; FAP 4G8 IgG-IL-10M1

Kd [2]: 0.052 nM | koff [2]: 9.35e-05 s⁻¹ | kon [2]: 1.8e+06 M⁻¹ s⁻¹
B2: TNC A2-targeted 2B10-based IgG-IL-10 immunoconjugate with monomeric IL-10 (IL-10M1) (other)
heavy 1: EIVLTQSPGTLSLSPGERATLSCRASQSVSRSYLAWYQQKPGQAPRLLIIGASTRATGIPDRFSGSGSGTDFTLTISRLEPEDFAVYYCQQGQVIPPTFGQGTKVEIKRTVAAPSVFIFPPSDEQLKSGTASVVCLLNNFYPREAKVQWKVDNALQSGNSQESVTEQDSKDSTYSLSSTLTLSKADYEKHKVYACEVTHQGLSSPVTKSFNRGEC
heavy 2: B2 heavy 1 with R31S, I50Y, T54S, V94Y, I95T
light: B2 heavy 1 with R31S, S32N, I50Y, S53Y, T54I
notes: P329G LALA in the Fc; also called 2B10 IgG-IL-10M1; TNCA2 2B10 IgG-IL-10M1

Kd [3]: 0.05 nM
B3: 4G8 IgG (unmodified anti-FAP antibody) (antibody, V domains shown)
VH: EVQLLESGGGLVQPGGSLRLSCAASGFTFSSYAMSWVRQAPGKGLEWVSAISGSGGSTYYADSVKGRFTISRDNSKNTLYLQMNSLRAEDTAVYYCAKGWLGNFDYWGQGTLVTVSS
VL: EIVLTQSPGTLSLSPGERATLSCRASQSVSRSYLAWYQQKPGQAPRLLIIGASTRATGIPDRFSGSGSGTDFTLTISRLEPEDFAVYYCQQGQVIPPTFGQGTKVEIK

Kd [3]: 0.2 nM
B4: 28H1 IgG (unmodified anti-FAP antibody) (antibody, V domains shown)
VH: EVQLLESGGGLVQPGGSLRLSCAASGFTFSSHAMSWVRQAPGKGLEWVSAIWASGEQYYADSVKGRFTISRDNSKNTLYLQMNSLRAEDTAVYYCAKGWLGNFDYWGQGTLVTVSS
VL: B3 VL
notes: Corresponding unmodified IgG of the 28H1 immunoconjugate
